Our source for the blocking of S protein binding (heat-map cell) and cells in the Anti-SARS-CoV-2 S protein (APC) gate values is patent US20220089695A1.

The target in assay [1] is SARS-CoV-2 Spike (S) protein, recombinant, construct not stated at the place (SARS-CoV-2) (UniProt P0DTC2).
Assay [2] deals with Dendritic cell-specific intercellular adhesion molecule-3-grabbing nonintegrin expressed on cells (human) (UniProt Q9NNX6).
Assay [3] concerns the target Liver and lymph node sinusoidal endothelial cell C-type lectin expressed on cells (human) (UniProt Q6UXB4).
Assay [4] deals with Liver/lymph node-specific intercellular adhesion molecule-3-grabbing integrin expressed on cells (human) (UniProt Q9H2X3).
Sequence of Liver/lymph node-specific intercellular adhesion molecule-3-grabbing integrin expressed on cells (human) (Q9H2X3 whole entry): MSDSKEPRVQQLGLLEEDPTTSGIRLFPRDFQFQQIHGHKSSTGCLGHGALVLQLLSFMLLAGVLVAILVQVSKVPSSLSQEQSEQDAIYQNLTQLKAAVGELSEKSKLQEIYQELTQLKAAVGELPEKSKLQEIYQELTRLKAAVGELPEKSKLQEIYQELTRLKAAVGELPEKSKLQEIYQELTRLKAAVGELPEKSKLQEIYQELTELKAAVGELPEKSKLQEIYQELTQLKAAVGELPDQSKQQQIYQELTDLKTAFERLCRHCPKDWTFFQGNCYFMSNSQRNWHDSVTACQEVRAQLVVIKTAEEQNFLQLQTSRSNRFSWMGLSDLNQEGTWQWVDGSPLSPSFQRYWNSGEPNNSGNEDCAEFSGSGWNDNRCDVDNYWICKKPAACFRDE
For assay [5], the target named is Asialoglycoprotein Receptor 1 expressed on cells (human) (UniProt P07306).
Sequence of Asialoglycoprotein Receptor 1 expressed on cells (human) (P07306 whole entry, the tested form may be a part): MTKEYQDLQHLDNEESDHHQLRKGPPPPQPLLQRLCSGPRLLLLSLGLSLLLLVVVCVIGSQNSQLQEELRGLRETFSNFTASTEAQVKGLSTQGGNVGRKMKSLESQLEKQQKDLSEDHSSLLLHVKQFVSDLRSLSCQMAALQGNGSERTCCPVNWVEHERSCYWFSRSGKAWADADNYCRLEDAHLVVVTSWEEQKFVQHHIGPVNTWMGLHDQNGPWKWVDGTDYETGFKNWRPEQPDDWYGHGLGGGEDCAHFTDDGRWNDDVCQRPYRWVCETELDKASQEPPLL
In assay [6] the target is C-type lectin domain family 10 member A expressed on cells (human) (UniProt Q8IUN9).
Sequence of C-type lectin domain family 10 member A expressed on cells (human) (Q8IUN9 whole entry, the tested form may be a part): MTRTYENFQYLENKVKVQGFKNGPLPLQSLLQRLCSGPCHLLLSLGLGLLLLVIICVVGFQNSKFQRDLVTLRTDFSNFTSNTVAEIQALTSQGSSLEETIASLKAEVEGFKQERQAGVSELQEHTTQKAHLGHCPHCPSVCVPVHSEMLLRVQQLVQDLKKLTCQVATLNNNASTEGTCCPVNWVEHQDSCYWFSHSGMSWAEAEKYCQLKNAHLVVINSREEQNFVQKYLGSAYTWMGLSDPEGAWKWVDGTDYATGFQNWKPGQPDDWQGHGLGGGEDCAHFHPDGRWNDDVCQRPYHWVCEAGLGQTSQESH
Assay [7] deals with Tweety Family Member 2 expressed on cells (human) (UniProt Q9BSA4).
Sequence of Tweety Family Member 2 expressed on cells (human) (Q9BSA4 whole entry): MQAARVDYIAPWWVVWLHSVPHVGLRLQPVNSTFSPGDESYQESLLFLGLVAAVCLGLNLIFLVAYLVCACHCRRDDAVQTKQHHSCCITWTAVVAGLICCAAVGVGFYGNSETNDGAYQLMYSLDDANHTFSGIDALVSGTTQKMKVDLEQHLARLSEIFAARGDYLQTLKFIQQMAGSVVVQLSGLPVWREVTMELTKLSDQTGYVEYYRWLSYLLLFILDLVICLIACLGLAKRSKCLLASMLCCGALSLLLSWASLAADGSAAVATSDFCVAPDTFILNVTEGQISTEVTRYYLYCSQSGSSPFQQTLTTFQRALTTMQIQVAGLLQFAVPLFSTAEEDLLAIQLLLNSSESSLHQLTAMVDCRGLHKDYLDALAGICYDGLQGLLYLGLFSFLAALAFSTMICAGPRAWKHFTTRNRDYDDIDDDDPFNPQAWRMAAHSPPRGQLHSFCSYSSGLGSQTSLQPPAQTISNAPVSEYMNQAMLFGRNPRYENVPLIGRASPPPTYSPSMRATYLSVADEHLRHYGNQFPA

Sequence of Dendritic cell-specific intercellular adhesion molecule-3-grabbing nonintegrin expressed on cells (human) (Q9NNX6 whole entry): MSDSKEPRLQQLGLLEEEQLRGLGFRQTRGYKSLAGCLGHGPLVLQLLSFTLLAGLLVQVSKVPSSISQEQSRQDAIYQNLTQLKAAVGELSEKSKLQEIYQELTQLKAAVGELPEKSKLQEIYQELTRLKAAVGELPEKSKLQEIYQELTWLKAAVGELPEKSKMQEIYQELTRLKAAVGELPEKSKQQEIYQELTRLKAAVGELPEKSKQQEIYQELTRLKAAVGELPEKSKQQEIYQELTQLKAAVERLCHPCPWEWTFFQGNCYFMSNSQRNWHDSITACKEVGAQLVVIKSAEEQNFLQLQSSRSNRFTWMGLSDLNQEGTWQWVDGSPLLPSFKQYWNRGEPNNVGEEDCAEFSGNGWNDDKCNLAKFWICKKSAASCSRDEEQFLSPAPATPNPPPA
Sequence of Liver and lymph node sinusoidal endothelial cell C-type lectin expressed on cells (human) (Q6UXB4 whole entry): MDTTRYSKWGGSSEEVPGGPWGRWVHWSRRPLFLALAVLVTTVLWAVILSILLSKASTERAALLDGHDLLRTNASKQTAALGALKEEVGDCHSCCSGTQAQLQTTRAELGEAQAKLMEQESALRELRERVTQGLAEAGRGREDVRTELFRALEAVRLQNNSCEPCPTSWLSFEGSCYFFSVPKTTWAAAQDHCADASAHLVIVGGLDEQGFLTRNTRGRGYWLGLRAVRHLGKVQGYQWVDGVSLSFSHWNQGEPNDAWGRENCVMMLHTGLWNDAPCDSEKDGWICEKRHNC

Fc Control: the blocking of S protein binding (heat-map cell) in assay [1] was 0%.

Regarding ACE2-Fc + L-SIGN-Fc + ASGR1-Fc, the blocking of S protein binding (heat-map cell) in assay [1] was found to be 33.7%.

“SARS-CoV-2 S protein displayed on lentiviral (HIV-GFP) pseudovirus (from UniProt P0DTC2 14-1273) (other; other documents disagree on this pair)”: the figures for the cells in the Anti-SARS-CoV-2 S protein (APC) gate in assay [2], in assay [3] and in assay [4] were 20.8%, 1.7% and 31.7%, respectively.

With “SARS-CoV-2 S protein displayed on lentiviral (HIV-GFP) pseudovirus (from UniProt P0DTC2 14-1273)”, the figures for the cells in the Anti-SARS-CoV-2 S protein (APC) gate in assay [5], in assay [6] and in assay [7] were 47.6%, 3.2% and 1.61%, respectively.
